The values that follow come from publication PMC12123718 (Respiratory Research, 2025).

By Kd is commonly meant the equilibrium constant for the complex coming apart.

This assay has as its target recombinant human PKM2 (rhPKM2) (human, UniProt P14618 1-531). In words: SPR. For orientation: Surface plasmon resonance follows binding to a sensor surface in real time, without labels.

recombinant human PKM2 (rhPKM2), sequence (P14618 whole entry): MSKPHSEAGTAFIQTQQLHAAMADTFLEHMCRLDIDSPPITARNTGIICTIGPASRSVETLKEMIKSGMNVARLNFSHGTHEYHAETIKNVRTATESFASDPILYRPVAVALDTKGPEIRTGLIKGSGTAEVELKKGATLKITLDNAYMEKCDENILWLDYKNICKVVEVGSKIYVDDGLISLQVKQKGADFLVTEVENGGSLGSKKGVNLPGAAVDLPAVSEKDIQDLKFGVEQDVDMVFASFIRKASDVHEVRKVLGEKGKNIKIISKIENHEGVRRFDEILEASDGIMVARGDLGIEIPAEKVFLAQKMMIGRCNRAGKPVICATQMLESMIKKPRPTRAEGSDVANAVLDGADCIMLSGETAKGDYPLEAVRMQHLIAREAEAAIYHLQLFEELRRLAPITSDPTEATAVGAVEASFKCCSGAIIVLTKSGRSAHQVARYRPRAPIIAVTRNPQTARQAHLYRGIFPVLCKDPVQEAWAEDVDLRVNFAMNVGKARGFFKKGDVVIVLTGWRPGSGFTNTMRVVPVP

B1: recombinant hPFN2 (rhPFN2) (natural protein, human, UniProt P35080 1-140, looked up)
chain: MAGWQSYVDNLMCDGCCQEAAIVGYCDAKYVWAATAGGVFQSITPIEIDMIVGKDREGFFTNGLTLGAKKCSVIRDSLYVDGDCTMDIRTKSQGGEPTYNVAVGRAGRVLVFVMGKEGVHGGGLNKKAYSMAKYLRDSGF
Regarding B1, the Kd was 50.6 nM.
